In patent US20050233313:

System: β-galactosidase substrate with a cleavage cassette (decapeptide corresponding to an HIV protease cleavage site) inserted into its open reading frame [β-galactosidase: P00722]
Sequence (P00722 2-1024): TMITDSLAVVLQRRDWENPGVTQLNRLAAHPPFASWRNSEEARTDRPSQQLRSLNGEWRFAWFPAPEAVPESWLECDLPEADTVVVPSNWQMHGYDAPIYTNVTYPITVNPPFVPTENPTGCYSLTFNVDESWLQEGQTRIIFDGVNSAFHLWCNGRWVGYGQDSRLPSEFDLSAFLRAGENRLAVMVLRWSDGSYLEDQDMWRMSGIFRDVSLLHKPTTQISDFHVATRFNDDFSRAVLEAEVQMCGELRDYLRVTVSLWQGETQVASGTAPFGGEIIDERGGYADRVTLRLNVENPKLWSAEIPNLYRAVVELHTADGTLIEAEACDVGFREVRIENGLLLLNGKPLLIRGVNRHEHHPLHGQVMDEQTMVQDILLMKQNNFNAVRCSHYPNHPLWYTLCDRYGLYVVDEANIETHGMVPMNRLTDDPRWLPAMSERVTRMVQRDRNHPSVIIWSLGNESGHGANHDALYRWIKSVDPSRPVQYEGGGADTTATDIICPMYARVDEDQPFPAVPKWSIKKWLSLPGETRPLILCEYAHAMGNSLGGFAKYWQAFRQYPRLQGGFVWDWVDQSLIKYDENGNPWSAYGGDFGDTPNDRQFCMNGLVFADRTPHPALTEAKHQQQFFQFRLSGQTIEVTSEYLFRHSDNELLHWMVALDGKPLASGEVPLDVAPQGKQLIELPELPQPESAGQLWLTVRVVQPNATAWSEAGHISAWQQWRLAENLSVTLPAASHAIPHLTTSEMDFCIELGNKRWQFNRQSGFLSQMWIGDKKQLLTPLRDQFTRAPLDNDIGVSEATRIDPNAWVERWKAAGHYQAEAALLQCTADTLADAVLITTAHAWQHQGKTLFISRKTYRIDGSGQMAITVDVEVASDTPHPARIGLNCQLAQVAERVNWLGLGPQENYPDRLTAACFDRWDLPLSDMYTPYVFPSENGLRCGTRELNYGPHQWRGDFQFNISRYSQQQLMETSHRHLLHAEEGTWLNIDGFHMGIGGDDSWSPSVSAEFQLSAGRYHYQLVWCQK

| Substance | % Cleavage |
| --- | --- |
| HIV-1 protease D25A (99 residues, HXB2) expressed from pMono | 0% |
| HIV-1 protease Q2A (99 residues, HXB2) expressed from pMono | 96% |
| HIV-1 protease I3A (99 residues, HXB2) expressed from pMono | 0% |
| HIV-1 protease L97A (99 residues, HXB2) expressed from pMono | 0% |
| HIV-1 protease F99A (99 residues, HXB2) expressed from pMono | 0% |
| HIV-1 protease T96A (99 residues, HXB2) expressed from pMono | 14% |
| HIV-1 protease P1A (99 residues, HXB2) expressed from pMono | 92% |
| HIV-1 protease T4A (99 residues, HXB2) expressed from pMono | 96% |
| HIV-1 protease N98A (99 residues, HXB2) expressed from pMono | 68% |
